Values quoted from earlier work, collected in article PMC3214078.

Key:
[1] = target: Histone H3 peptide N-terminal tail (Homo sapiens) (UniProt P68431); assay: ITC
[2] = target: Histone H3 peptide N-terminal tail (Homo sapiens) (UniProt P68431); assay: tryptophan fluorescence

UHRF1 PHD, sequence (Q96T88 307-369): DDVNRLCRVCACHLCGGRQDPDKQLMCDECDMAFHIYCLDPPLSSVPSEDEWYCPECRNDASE

Kd [1]: 0.93 µM | Kd [2]: 3.8 µM
Substance: UHRF1 PHD (from UniProt Q96T88)
